Source: the RNAGym collection of RNA variant scans (doi:10.7554/elife.90254)

B1: OR4K15 (parent)
chain: GUUAACGGUCAUAGGCCAUGGAAACUAGGAGCACCAUUUCGCUGCCAGUGAAGAAAUGAACAAAGAAAAUCUGGGCCAGGCAGGCAUCAAAAGAAAUAGUCUUGCGCUCAACCAGAAAGUCUGUAAUCAUUUUAAGGGUA

Variants of: B1
Assay: self-cleavage, relative activity (ratio to wild type); higher = more cleavage; in vitro, sequencing; the parent is a self-cleaving ribozyme

Going from A30G C61U to A30G G115U, the self-cleavage falls from 0.84 to 0.21.

Compared with A33U A82U, A33G A114C is lower in self-cleavage: 0.23 for the first, 0.05 for the second.

Compared with A33G A114G, A33G A114U is lower in self-cleavage: 0.11 for the first, 0.02 for the second.

First: A30G U127C
Second: A30U A91U
The self-cleavage of the first is higher: 0.97 for the first, 0.83 for the second.

First: C35U A60G
Second: A33U A66G
The self-cleavage of the first is lower: 0.76 for the first, 1.91 for the second.

First: A33C A111G
Second: A30U U131C
The self-cleavage of the first is lower: 0.03 for the first, 1.07 for the second.

Compared with A33G A110G, A30U G119A is higher in self-cleavage: 0.15 for the first, 2.38 for the second.

First: C34U U130C
Second: A33U A59C
The self-cleavage of the first is lower: 1.44 for the first, 2.23 for the second.

Going from A33U G74C to G31A A91U, the self-cleavage rises from 0.05 to 1.99.

Going from C32U U139C to C32U A118G, the self-cleavage falls from 1.64 to 1.44.

First: G31A A54G
Second: A33C A63G
The self-cleavage of the first is lower: 1.21 for the first, 1.98 for the second.

Going from A33U U57C to G31C U70A, the self-cleavage rises from 0.68 to 0.94.

First: A33G A92C
Second: A33G A92G
The self-cleavage of the first is lower: 0.81 for the first, 1.01 for the second.

First: A33U C85A
Second: A33U A55U
The self-cleavage of the first is lower: 2.05 for the first, 2.31 for the second.

First: A33U A60U
Second: C35U A64G
The self-cleavage of the first is higher: 1.68 for the first, 1 for the second.

Compared with G31A U122C, G31A U103C is lower in self-cleavage: 2.04 for the first, 0.46 for the second.

Going from G31C to G31A, the self-cleavage falls from 1.79 to 1.52.

Going from G31U to A33G A96U, the self-cleavage falls from 1.7 to 1.14.

Compared with A33G A96C, A33G G74U is lower in self-cleavage: 0.76 for the first, 0.19 for the second.

Going from C34U U39C to C32U A52G, the self-cleavage rises from 1.5 to 1.73.

First: A33G U122C
Second: A33C C46U
The self-cleavage of the first is lower: 0.64 for the first, 1.3 for the second.

A33G A126C and A33G A126U are the same in self-cleavage: 0.86 for the first, 0.86 for the second.

First: A30G U131C
Second: C32U A47U
The self-cleavage of the first is higher: 0.95 for the first, 0.9 for the second.

Compared with G31A U39C, A33G U38C is lower in self-cleavage: 1.68 for the first, 1.41 for the second.

Compared with A33C U87A, A30U A66U is lower in self-cleavage: 1.18 for the first, 0.65 for the second.

First: A30U A66G
Second: C34U A126G
The self-cleavage of the first is higher: 1.68 for the first, 1.12 for the second.

Compared with A30U A125G, G31U A110G is lower in self-cleavage: 0.5 for the first, 0.24 for the second.

C34A A116U and A33U U72G are the same in self-cleavage: 0.51 for the first, 0.51 for the second.

Going from A33G U120C to A33G U97A, the self-cleavage rises from 0.53 to 1.18.

Compared with A33G A95G, C35A A66G is lower in self-cleavage: 1.48 for the first, 0.76 for the second.

Compared with A33G A67G, A33G A36G is higher in self-cleavage: 1.06 for the first, 1.15 for the second.

Compared with A33G A36U, A30U U57C is lower in self-cleavage: 1.33 for the first, 1.31 for the second.

First: A30U U57A
Second: A30G C113U
The self-cleavage of the first is higher: 1.02 for the first, 0.07 for the second.

First: G31U A90G
Second: C32U U130C
The self-cleavage of the first is higher: 1.32 for the first, 1.26 for the second.

Compared with C34A U103C, A30U A47G is higher in self-cleavage: 0.77 for the first, 0.97 for the second.

Compared with A33G A140U, A33G A140G is higher in self-cleavage: 0.97 for the first, 1.26 for the second.

Going from A30U U108C to C34U A95G, the self-cleavage rises from 0.02 to 0.45.

Compared with A33C U39A, A33G A111U is lower in self-cleavage: 2.06 for the first, 0.06 for the second.

First: A33U A94U
Second: A33G A63U
The self-cleavage of the first is higher: 2.41 for the first, 0.76 for the second.

First: A33G A63G
Second: G31A A52G
The self-cleavage of the first is lower: 0.45 for the first, 2.05 for the second.

Compared with C34A A51G, A33G A91U is lower in self-cleavage: 1.27 for the first, 0.94 for the second.

Compared with C34U U131C, C34U C76U is lower in self-cleavage: 0.84 for the first, 0.12 for the second.

Compared with A33G G83U, A33G G80A is lower in self-cleavage: 0.24 for the first, 0.12 for the second.

Compared with A30G U132G, A30U G73U is lower in self-cleavage: 0.69 for the first, 0.17 for the second.

Compared with A33U U139C, A33U U139G is higher in self-cleavage: 1.86 for the first, 2.5 for the second.

Compared with A30G U120C, A30G U120A is higher in self-cleavage: 1.04 for the first, 1.3 for the second.

First: C32A G73U
Second: A30U A96G
The self-cleavage of the first is lower: 0.21 for the first, 0.89 for the second.

Compared with A33C U57A, C32A U39C is higher in self-cleavage: 1.1 for the first, 1.42 for the second.

Going from A33G A62U to A33G A62G, the self-cleavage rises from 0.76 to 1.11.

Compared with C34U A96G, C32U U39C is lower in self-cleavage: 2.68 for the first, 1.47 for the second.

Compared with A33G A59G, G31A U130C is higher in self-cleavage: 0.98 for the first, 1.91 for the second.

Going from C34G U132C to A30G U124C, the self-cleavage falls from 2.44 to 0.74.

First: A30G U124A
Second: G31C U108C
The self-cleavage of the first is higher: 0.78 for the first, 0.03 for the second.

First: A33U G41A
Second: A30G U103C
The self-cleavage of the first is higher: 1.52 for the first, 1.09 for the second.

Compared with C32U A89G, A30G C85U is lower in self-cleavage: 0.89 for the first, 0.69 for the second.

Compared with A33G A98G, A33U G104A is lower in self-cleavage: 0.77 for the first, 0.01 for the second.

Going from A33G G93A to A30G G74C, the self-cleavage falls from 1.14 to 0.34.

Compared with A33G A135G, A33G A64G is lower in self-cleavage: 0.69 for the first, 0.5 for the second.

Compared with A33G A55G, C34U U120G is higher in self-cleavage: 0.85 for the first, 0.94 for the second.

First: A33U U130C
Second: C34U G41U
The self-cleavage of the first is higher: 2 for the first, 1.82 for the second.

First: A33C A64C
Second: G31U U120C
The self-cleavage of the first is higher: 1.61 for the first, 1.21 for the second.

First: C35A G99U
Second: A30G U122C
The self-cleavage of the first is lower: 0.79 for the first, 0.84 for the second.

Compared with A33C A118C, A33G A68G is higher in self-cleavage: 0.99 for the first, 1.04 for the second.

Compared with A33G A68U, A30G C40U is lower in self-cleavage: 1.02 for the first, 0.89 for the second.

Going from C34U A59U to A33U A86G, the self-cleavage rises from 0.75 to 1.33.

First: G31C A90G
Second: A33G U100A
The self-cleavage of the first is higher: 1.73 for the first, 0.28 for the second.

First: A33U A89G
Second: A30U U130C
The self-cleavage of the first is higher: 1.46 for the first, 0.34 for the second.

Compared with A33U A91G, A33C A96G is higher in self-cleavage: 0.6 for the first, 2.84 for the second.

Compared with C35A C112U, A30G U97C is higher in self-cleavage: 0.03 for the first, 1.23 for the second.

Compared with A33U U38C, A33U A92G is lower in self-cleavage: 2 for the first, 1.86 for the second.

First: C32U A64G
Second: A30U A90G
The self-cleavage of the first is higher: 1.66 for the first, 1.31 for the second.

Going from A33G U102A to A33G U102C, the self-cleavage rises from 0.34 to 1.44.

Going from A33U A95U to A33G A56G, the self-cleavage falls from 2 to 0.77.

Going from C34G A67G to G31A A82U, the self-cleavage falls from 1.12 to 0.14.

First: A33G A116C
Second: A33G A116G
The self-cleavage of the first is lower: 0.14 for the first, 0.24 for the second.

First: A33G A116U
Second: G31C A55U
The self-cleavage of the first is lower: 0.21 for the first, 1.76 for the second.

Going from A33G A134G to A33G A47U, the self-cleavage rises from 0.52 to 0.57.

First: A33G A47G
Second: A33U A36G
The self-cleavage of the first is lower: 0.32 for the first, 2.32 for the second.

Going from C32A A47U to C32A A47G, the self-cleavage falls from 1.05 to 0.49.

Going from G31U A68G to A33G U124C, the self-cleavage falls from 1.26 to 0.63.

Compared with A33G, A33U is higher in self-cleavage: 0.82 for the first, 1.4 for the second.

Going from A33C to A30G U43C, the self-cleavage rises from 1.35 to 1.39.

Going from A30G U43A to A33U U70A, the self-cleavage falls from 1.01 to 0.33.

A30G U87A gave a self-cleavage of 0.88.
